According to the nanobody polyreactivity screen of Harvey et al. (2022):

Assay: yeast display, Sf9 membrane polyspecificity reagent, FACS + sequencing; frameworks hold sequencing errors
Outline: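 Nanobodies came from a synthetic yeast display library in Saccharomyces cerevisiae BJ5465, induced with galactose for 36–48 hours and stained for 1 hour at 4 °C with 10% biotinylated, detergent-solubilized Sf9 membrane reagent. Cells were enriched on streptavidin microbeads and then FACS-sorted, with low and high (top ~1%) gates set on anti-HA fluorescence for expression and streptavidin fluorescence for reagent binding. Each polyreactivity label reflects the gate a clone came from. Genes were amplified by colony PCR, sequenced by MiSeq 2 × 250 and filtered by CDR length.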

QVQLLESGGGLVQAGGSLRLSCAASGRIFRRYAMGWYRQAPGKEREFVAAITKSGGSTYYADSVKGRFTISRDNAKNTVYLQMNSLKPEDTAVYYCATYPQYYFRYDYWGQGTQVTVSS
polyreactivity (PSR sort gate): high polyreactivity

QVQLVDSGGGLVQAGGSLRLSCAASGNTFGINDMGWYRKAPGKERELVAAIRISGGSTYYADSVKGRFTISRDNAKNTVYLQMNSLKPEDTAVYYCAKYGPRASLYRTGRYYWGQGTQVTVSS
polyreactivity (PSR sort gate): high polyreactivity

QVQLVESGGGLVQAGGSLRLSCAASGMGWYRQAPGKERELVAAITSGDSTNYADSVKGRFTISRDNAKNTVYLQMNSLKPEDTAVYYCAADPDYLYAYYYWGQGTQVTVSS
polyreactivity (PSR sort gate): low polyreactivity

QVQLVDSGGGLVQAGGSLRLSCAASGRIFIGYAMGWNRQAPWRERELVAAITSGGGTYYADSVKARFTISRDNAKNTVYLQMNSLKPEDTAVYFCAGAQRYPIKYYFWGQGTQVTVSS
polyreactivity (PSR sort gate): low polyreactivity

QVQLVESGGGLVQAGGSLRLSCAASGRIFTRNAMGWYRQAPGKERELVAAISNGGRTNYADSVKGRFTISRDNAKYTVYLQMNSLKPEDTAVYYCNARYLPRSTIYDYWGQVTQVTVSS
polyreactivity (PSR sort gate): high polyreactivity

QVQLVQSGGGLVQAGGSLRLSCAASGSTFYVYAMGWYRQAPGKEREFVAAISRSGGRTYYAVSVKGRFTISRDNAKNTVYLQMNSLKPEDTAVYYCNARDSLRYYTYYFEDYRVGYDYWGQGTQVTVSS
polyreactivity (PSR sort gate): high polyreactivity

QVQLVESGGGLVQAGGSLRLSCAASGYIFPYYTMGWYRQAPGKERELVAAITIGGSTYYADSVKGRFTISRDNAKNTVYLKMNSLKPEDTAVYYCAAKYYDYLYRYIMEYWGQGTQVTVSS
polyreactivity (PSR sort gate): low polyreactivity

QVQLVESGGGLVQAGGSLRLSCAASGFTFDYYTMGWYRQAPGKERELVAAITSSAGSTDYADSVKGRFTISRDYAKNTVYLQMNSLKPEDTAVYYCNADFLYGTYDYWGQGTQVTVSS
polyreactivity (PSR sort gate): low polyreactivity

QVQLVESGGGLVQAGGSLRLSCAASGSTLTWNAMGWYRQAPGKERELVATISYSGSSTYYADSVKGRFTISRDNAKNSVYLQMFSLKPEDTAGYYCNAQELAYGHGFDSWGLGTQVTVSS
polyreactivity (PSR sort gate): low polyreactivity

QVQLVESGGGLVQAGGSLRLSCAASGITFRRYTMGWYRQAPGKERELVAAITSRGSSTYYADSVKGRFTISRDNAKNTVYLQMNSLKPEDTAVYYCAAQYRQRRHDYWGQGTQVTVSS
polyreactivity (PSR sort gate): high polyreactivity

QVQLVESGGGLVQAGGSLRLSCAASGSIFNRYAMGWYRQAPGKERELVAAITWNGGSTYYADSVKGRFTISRDNAKNTVYLQMNSLKPEDTAVYYCNKASLRGSYARYSYDYWGQGTQVTVSS
polyreactivity (PSR sort gate): high polyreactivity

QVQLGESGGGLVQAGGSLSLSCAASGSIFRNYAMGWYRPAPGKEWELVAAITRGGPTNYADSVKGRVTISRDHAKNTVYLQMNRQKPEDTAVYYCNAAWRLGWTHWETTRYVYWGQGTHVTVSS
polyreactivity (PSR sort gate): high polyreactivity

QVQLVDSAGGLVQAGGSLRLSCAASGRTYVVNTRGWSRQAPGKERELVASISSGTTNYADSVKGRFTISRDNAKNTVYLQMNSLKPVDTAVYYCNTDGGDHPTARYGYWGQGTQVTVSS
polyreactivity (PSR sort gate): high polyreactivity

QVQLVESGGGLVQAGGSLRLSCAASGRIFYPNTMGWYIQAPGKERELVAAISRSGGSTYYTDSVKGRFTISRDNAKNTVYLQMNSLKPEDTAVYYCATVPYESRYDYWGQGTQVTVSS
polyreactivity (PSR sort gate): high polyreactivity

QVQLVESGGGLVQAGGSLRLSCAASGFIFFAYAMGWYRQAPGKERELVAAISRTGGSTYYADSVKGRFTISRDNAKNTVYLQMNSLKPEDTAVYYCARPKYAWSYSRGNYWGQGTQVTVSS
polyreactivity (PSR sort gate): high polyreactivity

QVQLVESGGGLVQAGGSLRLSCAASGFIFSSNAMGWYRPAPGKERELVARITSSDGSTYYADSVKGRFTISRDNAKNTVYLQMNSLKPEDTAVYYCAKGRDATHYEYYLYSMDYWGQGTQVTVSS
polyreactivity (PSR sort gate): low polyreactivity

QVQLVESGGGLVQAGGSLRLICAASGSTFGFNAMGWYRQAPGKERELVAAITFSGGTTYYADSVKGRFTISRDNAKNTVYVQMNSLKPDDTAVYYCNAEWWYHYTGPFAPWGEDYWGQGTQVTVSS
polyreactivity (PSR sort gate): low polyreactivity
